Laboratory results: patent US20240092836A1
Each block holds one binder with its values, some of them ahead of it.

Target: Recombinant Human CTLA4-Fc chimera (R&D systems) (human) (UniProt P16410)
Test: ELISA, signal over SA

ELISA S/N(SA): 15.8
B1: C4m#19-5th4w-NN6-45 (peptide, not shown: large carriers; small tags and cut ends)
chain: GGCRHPWLPIWSVHFCGV

ELISA S/N(SA): 17.2
B2: C4m#19-5th4w-NN6-62 (peptide, not shown: large carriers; small tags and cut ends)
chain: GGCQHPYLPIWSFHFCPF

ELISA S/N(SA): 14.7
B3: C4m#19-5th4w-NN6-5-1 (peptide, not shown: large carriers; small tags and cut ends)
chain: GGCWHPYLPIQSLHFCPF

ELISA S/N(SA): 12.8
B4: C4m3127-4th-NNS6-2 (peptide, not shown: large carriers; small tags and cut ends)
chain: GGCWHPSLPIYSPHFCPL

ELISA S/N(SA): 5
B5: C4m#19-5th4w-NN6-94 (peptide, not shown: large carriers; small tags and cut ends)
chain: GGCLHPFLPIYSLHFCPC

ELISA S/N(SA): 9
B6: C4m#19-5th2w-NNS6-30 (peptide, not shown: large carriers; small tags and cut ends)
chain: GGCWHPFLPILSWHFCGR

ELISA S/N(SA): 7.1
B7: C4m3127-4th-NNS6-26 (peptide, not shown: large carriers; small tags and cut ends)
chain: GGCAHPALPIWSCHFCPF

ELISA S/N(SA): 4.7
B8: C4m3127-4th-NNS6-7 (peptide, not shown: large carriers; small tags and cut ends)
chain: GGCRHPFLPIRSPHFCGS

ELISA S/N(SA): 5.9
B9: C4m#19-5th4w-NN6-61 (peptide, not shown: large carriers; small tags and cut ends)
chain: GGCPHPMLPIFSVHFCPY

ELISA S/N(SA): 7.5
B10: C4m3127-4th-NNS6-30 (peptide, not shown: large carriers; small tags and cut ends)
chain: GGCWHPCLPILSPHFCPR

ELISA S/N(SA): 7
B11: C4m#19-5th2w-NNS6-74 (peptide, not shown: large carriers; small tags and cut ends)
chain: GGCMHPFLPIRSWHFCSR

ELISA S/N(SA): 14.2
B12: C4m#19-5th4w-NN6-46-1 (peptide, not shown: large carriers; small tags and cut ends)
chain: GGCVHPALPIWSFHFCPS

ELISA S/N(SA): 8.3
B13: C4m#19-5th4w-NN6-89 (peptide, not shown: large carriers; small tags and cut ends)
chain: GGCMHPFLPIISQHFCAF

ELISA S/N(SA): 12.8
B14: C4m3127-4th-NNS6-79 (peptide, not shown: large carriers; small tags and cut ends)
chain: GGCLHPFLPIRSVHFCLR

ELISA S/N(SA): 12.9
B15: C4m3127-4th-NNS6-64 (peptide, not shown: large carriers; small tags and cut ends)
chain: GGCLHPYLPIVSSHFCPF

ELISA S/N(SA): 17.4
B16: C4m#19-5th4w-NN6-71 (peptide, not shown: large carriers; small tags and cut ends)
chain: GGCPHPWLPIASVHFCPF

ELISA S/N(SA): 21.2
B17: C4m#19-5th4w-NN6-90 (peptide, not shown: large carriers; small tags and cut ends)
chain: GGCRHPWLPIVSYHFCSS

ELISA S/N(SA): 6.3
B18: C4m#19-5th2w-NNS6-4 (peptide, not shown: large carriers; small tags and cut ends)
chain: GGCFHPWLPISSLHFCPF

ELISA S/N(SA): 11
B19: C4m#19-5th2w-NNS6-45 (peptide, not shown: large carriers; small tags and cut ends)
chain: GGCRHPFLPIWSVHFCWR

ELISA S/N(SA): 4.8
B20: C4m#19-5th2w-NNS6-43 (peptide, not shown: large carriers; small tags and cut ends)
chain: GGCRHPFLPIWSSHFCAA

ELISA S/N(SA): 19.7
B21: C4m#19-5th2w-NNS6-90 (peptide, not shown: large carriers; small tags and cut ends)
chain: GGCRHPFLPIVSFHFCPF

ELISA S/N(SA): 5
B22: C4m#19-5th2w-NNS6-34 (peptide, not shown: large carriers; small tags and cut ends)
chain: GGCCHPFLPIYSVHFCAS

ELISA S/N(SA): 7.7
B23: C4m#19-5th2w-NNS6-86 (peptide, not shown: large carriers; small tags and cut ends)
chain: GGCFHPYLPIWSLHFCRS

ELISA S/N(SA): 11.9
B24: C4m3127-4th-NNS6-60 (peptide, not shown: large carriers; small tags and cut ends)
chain: GGCWHPFLPISSWHFCGL

ELISA S/N(SA): 16.6
B25: C4m#19-5th4w-NN6-38 (peptide, not shown: large carriers; small tags and cut ends)
chain: GGCSHPFLPIFSLHFCPV

ELISA S/N(SA): 5.9
B26: C4m3127-4th-NNS6-94 (peptide, not shown: large carriers; small tags and cut ends)
chain: GGCRHPVLPIWSSHFCPW

ELISA S/N(SA): 5.7
B27: C4m#19-5th4w-NN6-36 (peptide, not shown: large carriers; small tags and cut ends)
chain: GGCRHPYLPIWSAHFCCR

ELISA S/N(SA): 12
B28: C4m#19-5th4w-NN6-83 (peptide, not shown: large carriers; small tags and cut ends)
chain: GGCLHPLLPILSVHFCPS

ELISA S/N(SA): 20
B29: C4m3127-4th-NNS6-72 (peptide, not shown: large carriers; small tags and cut ends)
chain: GGCVHPYLPISSIHFCSM

ELISA S/N(SA): 10.9
B30: C4m3127-4th-NNS6-3 (peptide, not shown: large carriers; small tags and cut ends)
chain: GGCSHPFLPIWSVHFCGQ

ELISA S/N(SA): 16.1
B31: C4m#19-5th4w-NN6-6 (peptide, not shown: large carriers; small tags and cut ends)
chain: GGCMHPFLPIKSSHFCRK

ELISA S/N(SA): 21.1
B32: C4m#19-5th2w-NNS6-25 (peptide, not shown: large carriers; small tags and cut ends)
chain: GGCKHPFLPISSHHFCPY

ELISA S/N(SA): 16.5
B33: C4m#19-5th4w-NN6-63 (peptide, not shown: large carriers; small tags and cut ends)
chain: GGCWHPYLPILSRHFCQA

ELISA S/N(SA): 11.4
B34: C4m#19-5th2w-NNS6-53 (peptide, not shown: large carriers; small tags and cut ends)
chain: GGCLHPWLPIRSFHFCGA

ELISA S/N(SA): 16.5
B35: C4m3127-4th-NNS6-16 (peptide, not shown: large carriers; small tags and cut ends)
chain: GGCWHPYLPIFSVHFCPR

ELISA S/N(SA): 5.6
B36: C4m#19-5th4w-NN6-75 (peptide, not shown: large carriers; small tags and cut ends)
chain: GGCWHPFLPIKSVHFCCA

ELISA S/N(SA): 4.6
B37: C4m#19-5th4w-NN6-72 (peptide, not shown: large carriers; small tags and cut ends)
chain: GGCWHPWLPIVSVHFCGC

ELISA S/N(SA): 10.3
B38: C4m#19-5th2w-NNS6-6 (peptide, not shown: large carriers; small tags and cut ends)
chain: GGCWHPYLPILSLHFCQR

ELISA S/N(SA): 9.1
B39: C4m3127-4th-NNS6-85 (peptide, not shown: large carriers; small tags and cut ends)
chain: GGCGHPFLPIFSSHFCPL

ELISA S/N(SA): 5.1
B40: C4m#19-5th2w-NNS6-70 (peptide, not shown: large carriers; small tags and cut ends)
chain: GGCRHPFLPIVSWHFCAA

ELISA S/N(SA): 20.4
B41: C4m3127-4th-NNS6-17 (peptide, not shown: large carriers; small tags and cut ends)
chain: GGCRHPVLPIVSLHFCPG

ELISA S/N(SA): 6.3
B42: C4m#19-5th2w-NNS6-28 (peptide, not shown: large carriers; small tags and cut ends)
chain: GGCAHPYLPIRSVHFCPC

ELISA S/N(SA): 15.8
B43: C4m#19-5th2w-NNS6-51 (peptide, not shown: large carriers; small tags and cut ends)
chain: GGCRHPFLPIVSLHFCPF

ELISA S/N(SA): 13.5
B44: C4m3127-4th-NNS6-48 (peptide, not shown: large carriers; small tags and cut ends)
chain: GGCFHPWLPIASWHFCGR

ELISA S/N(SA): 5.8
B45: C4m#19-5th2w-NNS6-26 (peptide, not shown: large carriers; small tags and cut ends)
chain: GGCLHPFLPIVSIHFCSA

ELISA S/N(SA): 15.3
B46: C4m#19-5th2w-NNS6-75 (peptide, not shown: large carriers; small tags and cut ends)
chain: GGCWHPWLPIKSPHFCAL

ELISA S/N(SA): 13.7
B47: C4m#19-5th4w-NN6-64 (peptide, not shown: large carriers; small tags and cut ends)
chain: GGCWHPVLPIRSVHFCCR

ELISA S/N(SA): 20.4
B48: C4m#19-5th2w-NNS6-12 (peptide, not shown: large carriers; small tags and cut ends)
chain: GGCWHPYLPIRSVHFCGR

ELISA S/N(SA): 6.6
B49: C4m3127-4th-NNS6-89 (peptide, not shown: large carriers; small tags and cut ends)
chain: GGCWHPFLPIFSAHFCMR

ELISA S/N(SA): 18.7
B50: C4m#19-5th4w-NN6-58 (peptide, not shown: large carriers; small tags and cut ends)
chain: GGCRHPFLPISSIHFCCI

ELISA S/N(SA): 9.4
B51: C4m#19-5th2w-NNS6-33 (peptide, not shown: large carriers; small tags and cut ends)
chain: GGCRHPFLPIWSFHFCWG

ELISA S/N(SA): 15.1
B52: C4m#19-5th4w-NN6-74 (peptide, not shown: large carriers; small tags and cut ends)
chain: GGCFHPFLPIYSWHFCAR

ELISA S/N(SA): 12.5
B53: C4m#19-5th4w-NN6-65 (peptide, not shown: large carriers; small tags and cut ends)
chain: GGCWHPFLPILSLHFCSR

ELISA S/N(SA): 15.8
B54: C4m3127-4th-NNS6-12 (peptide, not shown: large carriers; small tags and cut ends)
chain: GGCSHPFLPIRSRHFCPF

ELISA S/N(SA): 14.7
B55: C4m#19-6th4w-NN6-5-3 (peptide, not shown: large carriers; small tags and cut ends)
chain: GGCWHPFLPILSLHFCGW

ELISA S/N(SA): 16.1
B56: C4m#19-5th4w-NN6-1 (peptide, not shown: large carriers; small tags and cut ends)
chain: GGCRHPYLPIFSAHFCRS

ELISA S/N(SA): 16.1
B57: C4m#19-5th4w-NN6-14 (peptide, not shown: large carriers; small tags and cut ends)
chain: GGCWHPFLPIRSVHFCCR

ELISA S/N(SA): 16.7
B58: C4m#19-5th4w-NN6-30 (peptide, not shown: large carriers; small tags and cut ends)
chain: GGCWHPFLPIMSFHFCPY

ELISA S/N(SA): 6.4
B59: C4m#19-5th2w-NNS6-84 (peptide, not shown: large carriers; small tags and cut ends)
chain: GGCWHPFLPIVSFHFCPF

ELISA S/N(SA): 19.7
B60: C4m#19-5th4w-NN6-86 (peptide, not shown: large carriers; small tags and cut ends)
chain: GGCAHPVLPIRSLHFCPH

ELISA S/N(SA): 18.4
B61: C4m#19-5th2w-NNS6-3 (peptide, not shown: large carriers; small tags and cut ends)
chain: GGCAHPFLPIFSPHFCPF

ELISA S/N(SA): 12.8
B62: C4m3127-4th-NNS6-80 (peptide, not shown: large carriers; small tags and cut ends)
chain: GGCGHPFLPIFSLHFCPR

ELISA S/N(SA): 20.7
B63: C4m3127-4th-NNS6-83 (peptide, not shown: large carriers; small tags and cut ends)
chain: GGCRHPFLPIFSKHFCEL

ELISA S/N(SA): 16.5
B64: C4m#19-5th2w-NNS6-8 (peptide, not shown: large carriers; small tags and cut ends)
chain: GGCRHPFLPIFSLHFCAR

ELISA S/N(SA): 4.8
B65: C4m3127-4th-NNS6-66 (peptide, not shown: large carriers; small tags and cut ends)
chain: GGCAHPHLPIRSVHFCSF

ELISA S/N(SA): 9.9
B66: C4m#19-5th2w-NNS6-27 (peptide, not shown: large carriers; small tags and cut ends)
chain: GGCFHPFLPIRSCHFCAR

ELISA S/N(SA): 6.1
B67: C4m#19-5th2w-NNS6-46 (peptide, not shown: large carriers; small tags and cut ends)
chain: GGCFHPFLPIFSYHFCGL

ELISA S/N(SA): 18.4
B68: C4m#19-5th4w-NN6-2 (peptide, not shown: large carriers; small tags and cut ends)
chain: GGCWHPHLPIVSSHFCLF

ELISA S/N(SA): 9.4
B69: C4m#19-5th2w-NNS6-37 (peptide, not shown: large carriers; small tags and cut ends)
chain: GGCIHPFLPIWSIHFCSR

ELISA S/N(SA): 9.2
B70: C4m#19-5th2w-NNS6-79 (peptide, not shown: large carriers; small tags and cut ends)
chain: GGCRHPFLPIVSRHFCVA
